Drawing on PMC6441893, this text covers binding ratio, acetylated versus nonacetylated H3K14 peptide (H3:H3K14ac) for four substances.

In this test the target is biotinylated histone H3 peptide acetylated at K14 (residues 1-21). The test is described as follows: BLI; biotinylated H3 or H3K14ac peptide (25 nM) immobilised on streptavidin sensors; BD proteins at 1 or 2 uM; 25 °C; 20 mM Tris pH 7.5, 300 mM NaCl, 1 mM TCEP, 1 uM ZnCl2, 10% glycerol, 0.5 mg/mL BSA; apparent Kd from a double exponential fit.

Consider “BD2 protein of PBRM1, GST removed (domain or fragment)”, for which the binding ratio, acetylated versus nonacetylated H3K14 peptide (H3:H3K14ac) was determined as 1.7.

“BD4 protein of PBRM1, GST removed (domain or fragment)”: the binding ratio, acetylated versus nonacetylated H3K14 peptide (H3:H3K14ac) came to 1.5. Next, “BD234 protein of PBRM1, GST removed (domain or fragment)”: 6.8; “BD245 protein of PBRM1, GST removed (domain or fragment)”: 12.3.
